Assays:
α-synuclein [1] = biological target: T1, α-synuclein (human, UniProt P37840 1-140); assay: SPR
α-synuclein [2] = biological target: T1, α-synuclein; assay: SPR; remark: listed apart in the source

Kd (α-synuclein [1]): 5.32 nM
koff (α-synuclein [2]): 0.00118 s⁻¹
B1: prolyl oligopeptidase (POP) (enzyme)
chain: MLSLQYPDVYRDETAVQDYHGHKICDPYAWLEDPDSEQTKAFVEAQNKITVPFLEQCPIRGLYKERMTELYDYPKYSCHFKKGKRYFYFYNTGLQNQRVLYVQDSLEGEARVFLDPNILSDDGTVALRGYAFSEDGEYFAYGLSASGSDWVTIKFMKVDGAKELPDVLERVKFSCMAWTHDGKGMFYNSYPQQDGKSDGTETSTNLHQKLYYHVLGTDQSEDILCAEFPDEPKWMGGAELSDDGRYVLLSIREGCDPVNRLWYCDLQQESSGIAGILKWVKLIDNFEGEYDYVTNEGTVFTFKTNRQSPNYRVINIDFRDPEESKWKVLVPEHEKDVLEWIACVRSNFLVLCYLHDVKNILQLHDLTTGALLKTFPLDVGSIVGYSGQKKDTEIFYQFTSFLSPGIIYHCDLTKEELEPRVFREVTVKGIDASDYQTVQIFYPSKDGTKIPMFIVHKKGIKLDGSHPAFLYGYGGFNISITPNYSVSRLIFVRHMGGILAVANIRGGGEYGETWHKGGILANKQNCFDDFQCAAEYLIKEGYTSPKRLTINGGSNGGLLVAACANQRPDLFGCVIAQVGVMDMLKFHKYTIGHAWTTDYGCSDSKQHFEWLVKYSPLHNVKLPEADDIQYPSMLLLTADHDDRVVPLHSLKFIATLQYIVGRSRKQSNPLLIHVDTKAGHGAGKPTAKVIEEVSDMFAFIARCLNVDWIP
